Tests used:
[1] = test system: chymotrypsin; experiment: Inhibition of chymotrypsin by rHCII (chromogenic substrate); assay type: biochemical, human; details: for Second-order rate constant (k2) for inhibition of chymotrypsin: No GAG, chymotrypsin 21 nM; for Inhibition of chymotrypsin (in words): absence of a glycosaminoglycan
Description: (§1) Materials--Chromogenic substrates were purchased from the following sources: tosyl-Gly-Pro-Arg-p-nitroanilide (Chromozym TH), Boehringer Mannheim; N-succinyl-Ala-Ala-Pro-Phe-p-nitroanilde, Sigma; methoxycarbonyl cyclohexylglycyl-Gly-Arg-p-nitroanilde (Spectrozyme FXa), American Diagnostica; and Pro-Phe-Arg-p-nitroanilide (S-2302), KabiVitrum. Thrombin and HCII derived from human plasma were prepared and assayed by conventional procedures as previously described by Blinder et al., J. Biol. Chem. 264, 5128-5133 (1989). Human coagulation factor Xa was provided by Dr. George Broze, Jr., Washington University, St. Louis, Mo. Human chymotrypsin and plasma kallikrein were purchased from Sigma. Affinity purified rabbit anti-HCII antibodies were prepared and labeled with Na[^125 I] by conventional procedure as described previously by Blinder et al., Biochemistry 27, 752-759 (1988). Bovine lung heparin and porcine skin dermatan sulfate were purchased from Sigma; the dermatan sulfate was treated with nitrous acid to remove contaminating heparin prior to use [Teien et al., Thromb. Res. 8, 859-867 (1976)]. Heparin-Sepharose was prepared by commonly known procedure as described previously by Tollefsen et al., J. Biol. Chem. 257, 2162-2169 (1982).
(§2) Inhibition of proteases by rHCII--Protease inhibition by rHCII was determined by incubating 90 μl of the partially purified rHCII (or the corresponding heparin-Sepharose fractions of a control lysate from cells transformed with pMON-5840) with 5 μl of the protease and 5 μl of either glycosaminoglycan or water in a disposable polystyrene cuvette at room temperature. Final concentrations of the proteases were as follows: thrombin, 15 nM; chymotrypsin, 21 nM; factor Xa, 16 nM; and kallikrein, 10 nM. After a specified period of time from 5 seconds (s) to 150 min, 300-500 μl of the appropriate chromogenic substrate was added, and the absorbance at 405 nm was recorded continuously for 100 s. The rate of change of absorbance was proportional to the concentration of active protease remaining in the incubation. The amounts added and concentrations of each substrate were as follows: Chromozym TH (thrombin), 500 μl, 0.1 mM; N-succinyl-Ala-Ala-Pro-Phe-p-nitroanilde (chymovtrypsin), 300 μl, 0.5 mM; Spectrozyme FXa (factor Xa), 400 μl, 0.125 mM; and S-2302 (kallikrein), 300 μl, 0.4 mM.
(§3) Protease inhibition by rHCII in the absence of a glycosaminoglycan--The time courses of inhibition of thrombin, factor Xa, kallikrein, and chymotrypsin by […] rHCII(Leu444 →Arg) in the absence of a glycosaminoglycan are indicated in FIG. 3. The incubations were performed under pseudo-first-order conditions, such that the initial concentration of rHCII was greater than the concentration of protease. The pseudo-first-order rate constants (k1) for protease inhibition were determined by fitting the data to the following equation: k1 t=ln([P]0 /[P]t), in which [P]0 =initial protease activity and [P]t =protease activity at time=t. The second-order rate constants (k2) were then calculated by dividing k1 by the initial rHCII concentration. It was observed that rHCII(Leu444 →Arg) inhibits thrombin almost 100 times more rapidly than native rHCII in the absence of a glycosaminoglycan. Furthermore, rHCII(Leu444 →Arg) inhibits factor Xa and kallikrein, while inhibition of these proteases by native rHCII is undetectable.

[2] = test system: thrombin; experiment: Inhibition of thrombin by rHCII (chromogenic substrate Chromozym TH); assay type: biochemical, human; details: for Second-order rate constant (k2) for inhibition of thrombin: No GAG, thrombin 15 nM, room temperature; for Increase in the rate constant for thrombin inhibition produced by dermatan sulfate: dermatan sulfate vs no GAG; for Increase in the rate constant for thrombin inhibition produced by heparin: heparin vs no GAG; for Maximum rate constant of thrombin inhibition relative to native HCII: in the presence of dermatan sulfate
Description: as §1, §2, §3
Inhibition of thrombin by rHCII in the presence of dermatan sulfate or heparin--The time course of inhibition of thrombin was determined in the presence of various concentrations of dermatan sulfate or heparin.

[3] = test system: factor Xa; experiment: Inhibition of factor Xa by rHCII (Spectrozyme FXa); assay type: biochemical, human; details: for Second-order rate constant (k2) for inhibition of factor Xa: No GAG, factor Xa 16 nM; for Inhibition of factor Xa (in words): absence of a glycosaminoglycan
Description: as §1, §2, §3

[4] = test system: plasma kallikrein; experiment: Inhibition of kallikrein by rHCII (S-2302); assay type: biochemical, human; details: for Second-order rate constant (k2) for inhibition of kallikrein: No GAG, kallikrein 10 nM; for Inhibition of kallikrein (in words): absence of a glycosaminoglycan
Description: as §1, §2, §3

[5] = test system: thrombin; details: literature; cited from earlier work

| Molecule | Second-order rate constant (k2) for inhibition of chymotrypsin [1] | Second-order rate constant (k2) for inhibition of thrombin [2] | Increase in the rate constant for thrombin inhibition produced by dermatan sulfate [2] | Increase in the rate constant for thrombin inhibition produced by heparin [2] | Second-order rate constant (k2) for inhibition of factor Xa [3] | Inhibition of factor Xa (in words) [3] | Second-order rate constant (k2) for inhibition of kallikrein [4] | Inhibition of kallikrein (in words) [4] | also measured |
| --- | --- | --- | --- | --- | --- | --- | --- | --- | --- |
| rHCII(Leu444 →Arg): modified heparin cofactor II: leucine at position 444 replaced by arginine in the 480 amino acid sequence; expressed in E. coli (protein, UniProt P05546 20-499, looked up, variant L444R, expressed in E. coli) Heparin cofactor 2: GSKGPLDQLEKGGETAQSADPQWEQLNNKNLSMPLLPADFHKENTVTNDWIPEGEEDDDYLDLEKIFSEDDDYIDIVDSLSVSPTDSDVSAGNILQLFHGKSRIQRLNILNAKFAFNLYRVLKDQVNTFDNIFIAPVGISTAMGMISLGLKGETHEQVHSILHFKDFVNASSKYEITTIHNLFRKLTHRLFRRNFGYTLRSVNDLYIQKQFPILLDFKTKVREYYFAEAQIADFSDPAFISKTNNHIMKLTKGLIKDALENIDPATQMMILNCIYFKGSWVNKFPVEMTHNHNFRLNEREVVKVSMMQTKGNFLAANDQELDCDILQLEYVGGISMLIVVPHKMSGMKTLEAQLTPRVVERWQKSMTNRTREVLLPKFKLEKNYNLVESLKLMGIRMLFDKNGNMAGISDQRIAIDLFKHQGTITVNEEGTQATTVTTVGFMPRSTQVRFTVDRPFLFLIYEHRTSCLLFMGRVANPSRS | < 10000 M⁻¹ min⁻¹ | 6.2e+06 M⁻¹ min⁻¹ | much smaller effect | minimal effect | 44000 M⁻¹ min⁻¹ | inhibits | 130000 M⁻¹ min⁻¹ | inhibits | Inhibition of chymotrypsin (in words) [1]: does not inhibit chymotrypsin at a detectable rate; Inhibition of chymotrypsin (in words) ([1]; listed as HCII(Leu444 →Arg)): more slowly; Second-order rate constant (k2) for inhibition of thrombin ([2]; listed as HCII(Leu444 →Arg)): 6.2e+06 M⁻¹ min⁻¹; Rate of thrombin inhibition relative to native HCII ([2]; absence of a glycosaminoglycan): ~100 fold; Maximum rate constant of thrombin inhibition relative to native HCII [2]: about twice as fast; Maximum rate constant of thrombin inhibition relative to native HCII ([2]; listed as HCII(Leu444 →Arg)): 2 fold; Inhibition of factor Xa (in words) ([3]; listed as HCII(Leu444 →Arg)): inhibited more rapidly; Effect of dermatan sulfate on rate of inhibition of factor Xa ([3]; dermatan sulfate): nor does it increase; Effect of heparin on inhibition of factor Xa ([3]; heparin 100 μg/ml): appears to protect; Inhibition of kallikrein (in words) ([4]; listed as HCII(Leu444 →Arg)): inhibited more rapidly; Effect of heparin on inhibition of kallikrein ([4]; heparin 100 μg/ml): appears to protect |
| native rHCII: recombinant native heparin cofactor II expressed in E. coli; amino acid sequence identical to HCII purified from human plasma (protein, UniProt P05546 20-499, looked up) Heparin cofactor 2: GSKGPLDQLEKGGETAQSADPQWEQLNNKNLSMPLLPADFHKENTVTNDWIPEGEEDDDYLDLEKIFSEDDDYIDIVDSLSVSPTDSDVSAGNILQLFHGKSRIQRLNILNAKFAFNLYRVLKDQVNTFDNIFIAPVGISTAMGMISLGLKGETHEQVHSILHFKDFVNASSKYEITTIHNLFRKLTHRLFRRNFGYTLRSVNDLYIQKQFPILLDFKTKVREYYFAEAQIADFSDPAFISKTNNHIMKLTKGLIKDALENIDPATQMMILNCIYFKGSWVNKFPVEMTHNHNFRLNEREVVKVSMMQTKGNFLAANDQELDCDILQLEYVGGISMLIVVPHKMSGMKTLEAQLTPRVVERWQKSMTNRTREVLLPKFKLEKNYNLVESLKLMGIRMLFDKNGNMAGISDQRIAIDLFKHQGTITVNEEGTQATTVTTVGFMPLSTQVRFTVDRPFLFLIYEHRTSCLLFMGRVANPSRS | 220000 M⁻¹ min⁻¹ | 63000 M⁻¹ min⁻¹ | ~3500 fold | about 40 fold | < 1000 M⁻¹ min⁻¹ | undetectable | < 3000 M⁻¹ min⁻¹ | undetectable | Effect of dermatan sulfate on rate of inhibition of chymotrypsin ([1]; dermatan sulfate): does not significantly increase; Second-order rate constant (k2) for inhibition of thrombin ([2]; listed as native HCII): 63000 M⁻¹ min⁻¹ |
| HCII: heparin cofactor II, a 65,600 dalton plasma glycoprotein, serpin that inhibits thrombin (protein, UniProt P05546 20-499, looked up) Heparin cofactor 2: GSKGPLDQLEKGGETAQSADPQWEQLNNKNLSMPLLPADFHKENTVTNDWIPEGEEDDDYLDLEKIFSEDDDYIDIVDSLSVSPTDSDVSAGNILQLFHGKSRIQRLNILNAKFAFNLYRVLKDQVNTFDNIFIAPVGISTAMGMISLGLKGETHEQVHSILHFKDFVNASSKYEITTIHNLFRKLTHRLFRRNFGYTLRSVNDLYIQKQFPILLDFKTKVREYYFAEAQIADFSDPAFISKTNNHIMKLTKGLIKDALENIDPATQMMILNCIYFKGSWVNKFPVEMTHNHNFRLNEREVVKVSMMQTKGNFLAANDQELDCDILQLEYVGGISMLIVVPHKMSGMKTLEAQLTPRVVERWQKSMTNRTREVLLPKFKLEKNYNLVESLKLMGIRMLFDKNGNMAGISDQRIAIDLFKHQGTITVNEEGTQATTVTTVGFMPLSTQVRFTVDRPFLFLIYEHRTSCLLFMGRVANPSRS |  |  |  |  |  |  |  |  | Increase of the rate of thrombin inhibition by heparin and dermatan sulfate [5]: ~ 1000 fold |
